Source: the supplement of paper PMC10567573

B1: P2RY14 (parent)
chain: KLLSVIVWMLMLLLAVPNIILTNQ

Variants of: B1
Assay: protein stability index of a GFP-peptide fusion (GPS, HEK-293T) (PSI 1-6); higher = more stable
Details: c terminus: a fixed tail appended
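Also: lentivirally expressed fusions sorted by FACS into six bins by GFP to DsRed ratio, PSI derived from sequencing read proportions per bin multiplied by bin number.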

Row | Variant | protein stability index
1 | KLASVIVWMLMLLLAVPNIILTNQ | 2.27
2 | KLHSVIVWMLMLLLAVPNIILTNQ | 1.3
3 | KLISVIVWMLMLLLAVPNIILTNQ | 1.73
4 | KLSSVIVWMLMLLLAVPNIILTNQ | 2.35
5 | KLLSVIVWMLMLLSAVPNIILTNQ | 3.42
6 | KLLSVIVWMLMLLMAVPNIILTNQ | 3.33
7 | KLLSVIVWMLMLLHAVPNIILTNQ | 2.92
8 | KLLSVIVWMLMLLEAVPNIILTNQ | 3.48
9 | KLLSVIVWMLMLLDAVPNIILTNQ | 3.07
10 | KLLSVIVWMLMLLAAVPNIILTNQ | 2.24
11 | KLLSVIVWMLDLLLAVPNIILTNQ | 4.89
12 | KLLSVIVWMLNLLLAVPNIILTNQ | 2.42
13 | KLLSVIVWMLKLLLAVPNIILTNQ | 2.5
14 | KLLSVIVWMLILLLAVPNIILTNQ | 3.17
15 | KLLSVIVWMLYLLLAVPNIILTNQ | 2.38
16 | KLLSVIVWMLFLLLAVPNIILTNQ | 3.31
17 | KLLSVIVWMLWLLLAVPNIILTNQ | 2.89
18 | KLLSVIVWMLPLLLAVPNIILTNQ | 3.16
19 | KLLSVIVWMLVLLLAVPNIILTNQ | 3.42
20 | KLLSVIVWMLQLLLAVPNIILTNQ | 1.1
21 | KLLSVIVWMLMLLLAVPNIILTTQ | 2.97
22 | KLLSVIVWMLMLLLAVPNIILTEQ | 3.67
23 | KLLSVIVWMLMLLLAVPNIILTHQ | 3.59
24 | KLLSVIVWMLMLLLAVPNIILTFQ | 2.98

Row | Variant | protein stability index
25 | KLLSVIVWMLMLLLAVPNIILTCQ | 2.15
26 | KLLSVIVWMLMLLLAVPNIILTIQ | 1
27 | KLLSVIVWMLMLLLAVPNIILTGQ | 2.54
28 | KLLYVIVWMLMLLLAVPNIILTNQ | 2.82
29 | KLLRVIVWMLMLLLAVPNIILTNQ | 2.78
30 | KLLHVIVWMLMLLLAVPNIILTNQ | 3.18
31 | KLLNVIVWMLMLLLAVPNIILTNQ | 2.81
32 | KLLQVIVWMLMLLLAVPNIILTNQ | 2.56
33 | KLLVVIVWMLMLLLAVPNIILTNQ | 3.9
34 | KLLTVIVWMLMLLLAVPNIILTNQ | 2.53
35 | KLLSVIVWMLMLILAVPNIILTNQ | 1.81
36 | KLLSVIVWMLMLSLAVPNIILTNQ | 3.29
37 | KLLSVIVWMLMLFLAVPNIILTNQ | 3.72
38 | KLLSVIVWMLMLGLAVPNIILTNQ | 2.79
39 | KLLSVIVWMLMLALAVPNIILTNQ | 2.98
40 | KLLSVIVWMLMLDLAVPNIILTNQ | 3.11
41 | KLLSVIVWMLMLTLAVPNIILTNQ | 2.38
42 | KLLSVIVWMLMLYLAVPNIILTNQ | 3.48
43 | KLLSVIVWMLMLKLAVPNIILTNQ | 1.78
44 | KLLSVIVWMLMLVLAVPNIILTNQ | 1.84
45 | KLLSVIVWMLMLHLAVPNIILTNQ | 4.28
46 | KLLSVIVWMLMLLLHVPNIILTNQ | 3.28
47 | KLLSVIVWMLMLLLQVPNIILTNQ | 3.12
48 | KLLSVIVWMLMLLLMVPNIILTNQ | 3.03

Row | Variant | protein stability index
49 | KLLSVIVWMLMLLLLVPNIILTNQ | 2.56
50 | KLLSVIVWMLMLLLDVPNIILTNQ | 3.06
51 | KLLSVIVWMLMLLLCVPNIILTNQ | 3.31
52 | KLLSVIVWMLMLLLVVPNIILTNQ | 2.77
53 | KLLSVIVWMLMLLLNVPNIILTNQ | 3.1
54 | FLLSVIVWMLMLLLAVPNIILTNQ | 3.58
55 | GLLSVIVWMLMLLLAVPNIILTNQ | 2.55
56 | LLLSVIVWMLMLLLAVPNIILTNQ | 3.3
57 | HLLSVIVWMLMLLLAVPNIILTNQ | 4.35
58 | RLLSVIVWMLMLLLAVPNIILTNQ | 2.35
59 | KLLSVIVWMLMLLLAVPNIISTNQ | 2.57
60 | KLLSVIVWMLMLLLAVPNIIATNQ | 3.89
61 | KLLSVIVWMLMLLLAVPNIIPTNQ | 1.98
62 | KLLSVIVWMLMLLLAVPNIITTNQ | 3.22
63 | KLLSVIVWMLMLLLAVPNIINTNQ | 2.28
64 | KLLSVIVWMLMLLLAVPNIIITNQ | 3.12
65 | KLLSVIVWMLMLLLAVPNIIMTNQ | 2.96
66 | KLLSVIVWSLMLLLAVPNIILTNQ | 3.82
67 | KLLSVIVWQLMLLLAVPNIILTNQ | 3.1
68 | KLLSVIVWNLMLLLAVPNIILTNQ | 2.1
69 | KLLSVIVWELMLLLAVPNIILTNQ | 2.68
70 | KLLSVIVWALMLLLAVPNIILTNQ | 3.79
71 | KLLSVIVWLLMLLLAVPNIILTNQ | 3.19
72 | KLLSVIVWGLMLLLAVPNIILTNQ | 2.87

Row | Variant | protein stability index
73 | KLLSVIVWMLMLLLAVPNILLTNQ | 2.52
74 | KLLSVIVWMLMLLLAVPNIALTNQ | 2.31
75 | KLLSVIVWMLMLLLAVPNIPLTNQ | 4.08
76 | KLLSVIVWMLMLLLAVPNIELTNQ | 3.69
77 | KLLSVIVWMLMLLLAVPNICLTNQ | 1.86
78 | KLLSVMVWMLMLLLAVPNIILTNQ | 3.13
79 | KLLSVTVWMLMLLLAVPNIILTNQ | 2.48
80 | KLLSVWVWMLMLLLAVPNIILTNQ | 2.02
81 | KLLSVPVWMLMLLLAVPNIILTNQ | 1.89
82 | KLLSVFVWMLMLLLAVPNIILTNQ | 2.8
83 | KLLSVNVWMLMLLLAVPNIILTNQ | 3.01
84 | KLLSVVVWMLMLLLAVPNIILTNQ | 4.09
85 | KLLSVIVWMLMFLLAVPNIILTNQ | 2.59
86 | KLLSVIVWMLMRLLAVPNIILTNQ | 2.69
87 | KLLSVIVWMLMMLLAVPNIILTNQ | 3.06
88 | KLLSVIVWMLMQLLAVPNIILTNQ | 2.51
89 | KLLSVIVWMLMDLLAVPNIILTNQ | 2.65
90 | KLLSVIVWMLMALLAVPNIILTNQ | 2.7
91 | KCLSVIVWMLMLLLAVPNIILTNQ | 3.88
92 | KNLSVIVWMLMLLLAVPNIILTNQ | 1.89
93 | KFLSVIVWMLMLLLAVPNIILTNQ | 2.29
94 | KPLSVIVWMLMLLLAVPNIILTNQ | 3.19
